According to US20230151105A1:

Key:
[1] = target: recombinant OX40-Fc protein (R & D, Cat 3388-OX) (human) (UniProt P43489); test: blocking ELISA: OX40-Fc coated, antibody titrated, competitor OX40L at 50 ng/ml
[2] = target: human OX40 expressed on the cell surface (human) (UniProt P43489); test: cell-based or functional assay
human OX40 expressed on the cell surface (human), sequence (P43489 29-277): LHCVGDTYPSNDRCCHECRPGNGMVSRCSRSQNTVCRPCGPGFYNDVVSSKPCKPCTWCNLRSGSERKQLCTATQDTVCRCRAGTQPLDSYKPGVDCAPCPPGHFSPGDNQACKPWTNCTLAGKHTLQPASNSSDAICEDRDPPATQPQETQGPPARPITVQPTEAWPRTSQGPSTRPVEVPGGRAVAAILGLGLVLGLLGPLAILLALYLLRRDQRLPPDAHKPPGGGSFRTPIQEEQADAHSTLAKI

recombinant OX40-Fc protein (R & D, Cat 3388-OX) (human), sequence (P43489 29-214): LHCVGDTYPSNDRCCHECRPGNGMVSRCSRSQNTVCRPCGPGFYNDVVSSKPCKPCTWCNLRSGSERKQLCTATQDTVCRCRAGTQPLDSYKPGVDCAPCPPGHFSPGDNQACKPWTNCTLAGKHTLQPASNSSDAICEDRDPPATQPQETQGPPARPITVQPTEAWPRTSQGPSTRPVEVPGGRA

- IC50 [1]: 0.3 nM
- maximum inhibition rate [1]: 50%
- blocking of OX40L-mediated T cell activation, IFNγ secretion, IC50 [2]: 1.1 nM
B1: GBR830 (antibody, from another filing, V domains shown)
VH: QVTLKESGPALVKPTQTLTLTCSFSGFSLSTSGMGVGWIRQPPGKALEWIAHIWWDDDKYYNTALKTRLTISKDTSKNQVVLTMTNMDPVDTATYYCARIDWDGFAYWGQGTLVTVSS
VL: EIVLTQSPATLSLSPGERATLSCRASSSVSYMHWYQQKPGQAPRPWIYATSNRATGIPARFSGSGSGTDYTLTISSLEPEDFAVYYCQQWSSNPWTFGQGTKVEIKR
